Patent EP2654803B1, “RADIOLABELED HER2-BINDING PEPTIDE CONJUGATES” (General Electric Company, priority 2010, dated 2021)
Like-named read-outs stand apart in the source and are kept apart here.

Legend:
[1] = tested on: SKOV3 tumors; set-up: species or system female CD-1 nude mice; conditions: mouse, in vivo
Protocol: Synthesis of the radiolabeled polypeptide was performed using a one-step kit formulation produced in house (Chelakit A+) containing a lyophilized mixture of stannous chloride as a reducing agent for technetium, methylene diphosphonic acid, p-aminobenzoate as a free-radical scavenger and sodium bicarbonate/sodium carbonate (pH 9.2) as buffer. In rapid succession, 20 µL of a 2 µg/µL solution of polypeptide in saline was added to the Chelakit, followed immediately by Na^99mTcO4 (0.8 mCi, 29.6 MBq) in 0.080 mL of saline (0.15M NaCl) obtained from Cardinal Health (Albany, NY). The mixture was agitated once and allowed to sit at ambient temperature for 20 min. Upon completion, the crude radiochemical yield was determined by ITLC (Table 6 below according to ITLC-SG, Biodex, 0.9% NaCl). […]
Mice were given tail-vein injections of ∼1 ug of ^99mTc-labeled polypeptides (∼10 µCi/1 µg). […] Three mice were euthanized at each timepoint and tissues of interest dissected and counted on a Perkin Elmer Wallac Wizard 1480 Gamma Counter. […] Urine from cages was pooled with the bladder and also counted. The remaining tissues were counted and the sum of all tissues plus urine for each animal was summed to provide the total injected dose. The % injected dose for each organ was determined based on this total, and organs were weighed for determination of the % injected dose per gram, (%ID/g). […]

[2] = tested on: SKOV3 tumors; set-up: species or system female CD-1 nude mice; conditions: mouse, in vivo; remark: listed apart in the source
Protocol: In vivo studies were carried out with female CD-1 nude mice (Charles River Labs, Hopkinton, MA) with an age range between 6 and 15 weeks. Mice were housed in a ventilated rack with food and water ad libitum and a standard 12 hour day-night lighting cycle. For xenografts, animals were injected with 100 µl of cells in PBS. Cells were implanted subcutaneously in the right hindquarter. Implantation was performed under isoflurane anesthesia. For SKOV3, between 3 x 10^6 to 4 x 10^6 cells were implanted in each mouse. Under these conditions, useable tumors ([…]) were obtained in 3 to 4 weeks in greater than 80% of animals injected. Mice were given tail-vein injections of ∼1 ug of ^18F-labeled polypeptide (∼4 uCi/1 µg). Mice were placed in filter-paper lined cages until euthanasia. Three mice were euthanized at each timepoint and tissues of interest dissected and counted on a Perkin Elmer Wallac Wizard 1480 Gamma Counter. Data were collected for blood, kidney, liver, spleen, bone and injection site (tail). Urine from cages was pooled with the bladder and also counted. The remaining tissues were counted and the sum of all tissues plus urine for each animal was summed to provide the total injected dose. The percent injected dose for each organ was determined based on this total, and organs were weighed for determination of the percent injected dose per gram, (%ID/g). […]

Substance | kidneys, ID/organ [1] [ID/organ] | uptake in the liver [1] [%ID/organ] | kidneys, ID/organ [2] [ID/organ] | uptake in the liver [2]
Z02891 (SEQ. ID No. 2) cPN216: Z02891 polypeptide conjugated with Mal-cPN216 via a terminal cysteine and labeled with 99mTc | 10.58 ± 2.96 | 12 |  | 
Z02891 (SEQ. ID No. 2) 18F-fluorobenzyl oxime: Z02891-ONH2 (Mal-AO on cysteine) reacted with [18F]4-fluorobenzaldehyde |  |  | 0.95±0.07 | ca. 1.8 %ID/organ
